Source: publication PMC9815098 (Acta Crystallographica. Section D, Structural Biology, 2023)

Target: the molecule itself
Assay: SEC-MALS; RBP-CPN at 0.5, 1.0 and 5 mg ml^-1; Superdex 75 Increase 10/300 GL; 10 mM sodium phosphate pH 7.8, 50 mM sodium chloride, 0.02% sodium azide; room temperature; monomer to dimer

B1: RBP-CPN (permuted N-terminal lobe of the ribose-binding protein from Thermotoga maritima) (domain or fragment)
chain: MKGKMAIVISTLNNPWFVVLAETAKQRAEQLGYEATIFDSQNDTAKESAHFDAIIAAGYDAIIFNPTDADGSIANVKRAKEAGIPVFCVDRGINARGLAVAQIYSDTSTQFPKLMARLAVEWADQYLRGG
notes: residue printed between position 263 and the HHHHHH tag; source: E. coli BL21 (DE3), purified (IMAC, SEC)
- stoichiometry N: 2
